Test results as given in patent US20180360932A1 (OPKO BIOLOGICS, published 2018).
Each block holds one substance with its values, some of them ahead of it.

Tests used:
MOD-5014/TF complex [1] = biological target: MOD-5014/TF complex (UniProt P13726)
MOD-5000/TF complex [2] = biological target: MOD-5000/TF complex (UniProt P08709)
MOD-5014/TF complex [3] = biological target: MOD-5014/TF complex (UniProt P13726); assay: FX activation kinetics of the FVIIa/TF complex (FVIIa 1 nM, TF 5 pM, FX 0-1500 nM, Pefachrome FXa)
MOD-5000/TF complex [4] = biological target: MOD-5000/TF complex (UniProt P08709); assay: as above
[5] = biological target: MOD-5014 (FVIIa-CTP3, activated Factor VII-CTP-CTP-CTP) (human) (UniProt P08709); assay: cell-based or functional assay
[6] = biological target: NovoSeven (commercial recombinant human FVIIa) (human) (UniProt P08709); assay: cell-based or functional assay
[7] = biological target: Recombinant human FVIIa (NovoSeven) (human) (UniProt P08709); assay: cell-based or functional assay
Factor X (FX) = Factor X (FX) (UniProt P00742); assay: cell-based or functional assay
Factor X = Factor X (UniProt P00742); assay: cell-based or functional assay
Chain of Factor X (P00742 41-488 limits assumed): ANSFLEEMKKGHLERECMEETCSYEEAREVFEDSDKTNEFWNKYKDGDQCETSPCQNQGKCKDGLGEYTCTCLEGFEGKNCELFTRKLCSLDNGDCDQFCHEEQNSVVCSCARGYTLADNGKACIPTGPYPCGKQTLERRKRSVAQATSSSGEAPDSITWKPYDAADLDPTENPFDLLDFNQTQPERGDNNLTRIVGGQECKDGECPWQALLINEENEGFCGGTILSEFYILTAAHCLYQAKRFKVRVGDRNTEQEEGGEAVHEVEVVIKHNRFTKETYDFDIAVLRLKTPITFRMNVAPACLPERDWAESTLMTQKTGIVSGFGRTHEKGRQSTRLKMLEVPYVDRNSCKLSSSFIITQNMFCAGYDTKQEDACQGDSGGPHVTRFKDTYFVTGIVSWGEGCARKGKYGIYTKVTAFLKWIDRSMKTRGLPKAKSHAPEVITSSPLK

Chain of Factor X (FX) (chain): as the sequence (P00742 41-488 limits assumed) above
Chain of Factor X (FX) (UniProt P00742) (P00742 41-488 limits assumed): as above

Substance: Factor X (FX)
Vmax (rate of FX activation by the FVIIa/TF complex as a function of FX concentration) (MOD-5014/TF complex [1]): 1.64 nM FXa/min
Vmax (rate of FX activation by the FVIIa/TF complex as a function of FX concentration) (MOD-5000/TF complex [2]): 1.78 nM FXa/min
Km (MOD-5014/TF complex [3]): 0.12 µM
Km (MOD-5000/TF complex [4]): 0.14 µM

% Inhibition of clotting activity, AT 1.050 ng/mL [5]: 25%
% Inhibition of clotting activity, AT 10.5 ng/mL [5]: 28%
% Inhibition of clotting activity, AT 105 ng/mL [5]: 25%
% Inhibition of clotting activity, AT 10,500 ng/mL [5]: 25%
% Inhibition of clotting activity, AT 105000 ng/mL [5]: 62%
% Inhibition of clotting activity, AT 525000 ng/mL [5]: 100%
Activity (mU/mL), clotting assay, AT 0 ng/mL (no inhibitor) [5]: 70.8 mU/mL
Activity (mU/mL), clotting assay, AT 1.050 ng/mL [5]: 52.9 mU/mL
Activity (mU/mL), clotting assay, AT 10.5 ng/mL [5]: 50.7 mU/mL
Activity (mU/mL), clotting assay, AT 105 ng/mL [5]: 53.3 mU/mL
Activity (mU/mL), clotting assay, AT 1,050 ng/mL [5]: 53.4 mU/mL
Activity (mU/mL), clotting assay, AT 10,500 ng/mL [5]: 53 mU/mL
Activity (mU/mL), clotting assay, AT 105000 ng/mL [5]: 27 mU/mL
Activity (mU/mL), clotting assay, AT 525000 ng/mL [5]: 0 mU/mL
O.D, FX activation by MOD-5014 (0.7 ng/ml), AT 0.16 µg/ml [5]: 1.18 O.D
O.D, FX activation by MOD-5014 (0.7 ng/ml), AT 0.8 µg/ml [5]: 1.07 O.D
O.D, FX activation by MOD-5014 (0.7 ng/ml), AT 4 µg/ml [5]: 1.14 O.D
O.D, FX activation by MOD-5014 (0.7 ng/ml), AT 20 µg/ml [5]: 1.11 O.D
O.D, FX activation by MOD-5014 (0.7 ng/ml), AT 100 µg/ml [5]: 0.974 O.D
O.D, FX activation by MOD-5014 (0.7 ng/ml), AT 500 µg/ml [5]: 0.975 O.D
O.D, FX activation by MOD-5014 (0.7 ng/ml), AT 1680 µg/ml [5]: 0.656 O.D
O.D, FX activation by MOD-5014 (0.7 ng/ml), control (no AT) [5]: 1.09 O.D
O.D., FX activation by MOD-5014 (0.7 ng/ml) with 1 U/µl heparin, AT 0.032 µg/ml [5]: 1.24 O.D.
O.D., FX activation by MOD-5014 (0.7 ng/ml) with 1 U/µl heparin, AT 0.16 µg/ml [5]: 1.24 O.D.
O.D., FX activation by MOD-5014 (0.7 ng/ml) with 1 U/µl heparin, AT 0.8 µg/ml [5]: 1.25 O.D.
O.D., FX activation by MOD-5014 (0.7 ng/ml) with 1 U/µl heparin, AT 4 µg/ml [5]: 1.26 O.D.
O.D., FX activation by MOD-5014 (0.7 ng/ml) with 1 U/µl heparin, AT 20 µg/ml [5]: 1.08 O.D.
O.D., FX activation by MOD-5014 (0.7 ng/ml) with 1 U/µl heparin, AT 100 µg/ml [5]: 0.404 O.D.
O.D., FX activation by MOD-5014 (0.7 ng/ml) with 1 U/µl heparin, AT 500 µg/ml [5]: 0.153 O.D.
O.D., FX activation by MOD-5014 (0.7 ng/ml) with 1 U/µl heparin, AT 1680 µg/ml [5]: 0.197 O.D.
O.D., FX activation by MOD-5014 (0.7 ng/ml), AT III constant 20 µg/ml, heparin 0.002 U/µl [5]: 1.29 O.D.
O.D., FX activation by MOD-5014 (0.7 ng/ml), AT III constant 20 µg/ml, heparin 0.01 U/µl [5]: 1.14 O.D.
O.D., FX activation by MOD-5014 (0.7 ng/ml), AT III constant 20 µg/ml, heparin 0.25 U/µl [5]: 0.917 O.D.
O.D., FX activation by MOD-5014 (0.7 ng/ml), AT III constant 20 µg/ml, heparin 1.25 U/µl [5]: 0.896 O.D.
O.D., FX activation by MOD-5014 (0.7 ng/ml), AT III constant 20 µg/ml, heparin 6.25 U/µl [5]: 1.02 O.D.
O.D., FX activation by MOD-5014 (0.7 ng/ml), Control [5]: 1.41 O.D.
% Inhibition of clotting activity, AT 1.050 ng/mL [6]: 21%
% Inhibition of clotting activity, AT 105 ng/mL [6]: 20%
% Inhibition of clotting activity, AT 10,500 ng/mL [6]: 30%
% Inhibition of clotting activity, AT 525000 ng/mL [6]: 100%
Activity (mU/mL), clotting assay, AT 0 ng/mL (no inhibitor) [6]: 88.1 mU/mL
Activity (mU/mL), clotting assay, AT 1.050 ng/mL [6]: 69.5 mU/mL
Activity (mU/mL), clotting assay, AT 10.5 ng/mL [6]: 68.4 mU/mL
Activity (mU/mL), clotting assay, AT 105 ng/mL [6]: 70.2 mU/mL
Activity (mU/mL), clotting assay, AT 1,050 ng/mL [6]: 66.8 mU/mL
Activity (mU/mL), clotting assay, AT 10,500 ng/mL [6]: 61.5 mU/mL
Activity (mU/mL), clotting assay, AT 105000 ng/mL [6]: 30.6 mU/mL
Activity (mU/mL), clotting assay, AT 525000 ng/mL [6]: 0 mU/mL
O.D, FX activation by NovoSeven (0.7 ng/ml), AT 0.16 µg/ml [6]: 1.23 O.D
O.D, FX activation by NovoSeven (0.7 ng/ml), AT 4 µg/ml [6]: 1.17 O.D
O.D, FX activation by NovoSeven (0.7 ng/ml), AT 20 µg/ml [6]: 1.15 O.D
O.D, FX activation by NovoSeven (0.7 ng/ml), AT 100 µg/ml [6]: 1.14 O.D
O.D, FX activation by NovoSeven (0.7 ng/ml), AT 500 µg/ml [6]: 0.933 O.D
O.D, FX activation by NovoSeven (0.7 ng/ml), AT 1680 µg/ml [6]: 0.784 O.D
O.D, FX activation by NovoSeven (0.7 ng/ml), control (no AT) [6]: 1.28 O.D
O.D., FX activation by NovoSeven (0.7 ng/ml) with 1 U/µl heparin, AT 0.032 µg/ml [6]: 1.16 O.D.
O.D., FX activation by NovoSeven (0.7 ng/ml) with 1 U/µl heparin, AT 0.16 µg/ml [6]: 1.19 O.D.
O.D., FX activation by NovoSeven (0.7 ng/ml) with 1 U/µl heparin, AT 0.8 µg/ml [6]: 1.22 O.D.
O.D., FX activation by NovoSeven (0.7 ng/ml) with 1 U/µl heparin, AT 4 µg/ml [6]: 1.17 O.D.
O.D., FX activation by NovoSeven (0.7 ng/ml) with 1 U/µl heparin, AT 20 µg/ml [6]: 1.04 O.D.
O.D., FX activation by NovoSeven (0.7 ng/ml) with 1 U/µl heparin, AT 100 µg/ml [6]: 0.503 O.D.
O.D., FX activation by NovoSeven (0.7 ng/ml) with 1 U/µl heparin, AT 500 µg/ml [6]: 0.201 O.D.
O.D., FX activation by NovoSeven (0.7 ng/ml) with 1 U/µl heparin, AT 1680 µg/ml [6]: 0.141 O.D.
O.D., FX activation by NovoSeven (0.7 ng/ml), AT III constant 20 µg/ml, heparin 0.002 U/µl [6]: 1.24 O.D.
O.D., FX activation by NovoSeven (0.7 ng/ml), AT III constant 20 µg/ml, heparin 0.01 U/µl [6]: 1.2 O.D.
O.D., FX activation by NovoSeven (0.7 ng/ml), AT III constant 20 µg/ml, heparin 0.25 U/µl [6]: 1.04 O.D.
O.D., FX activation by NovoSeven (0.7 ng/ml), AT III constant 20 µg/ml, heparin 1.25 U/µl [6]: 0.98 O.D.
O.D., FX activation by NovoSeven (0.7 ng/ml), AT III constant 20 µg/ml, heparin 6.25 U/µl [6]: 1 O.D.
O.D., FX activation by NovoSeven (0.7 ng/ml), Control [6]: 1.43 O.D.
Substance: Anti thrombin III (ATIII) (from UniProt P01008 33-464)

IC50 of anti-thrombin on FX activation (chromogenic), 0.7 ng/ml FVIIa, 1 U/µl heparin [5]: 49.6 µg/mL
IC50 of anti-thrombin on FX activation (chromogenic), 0.7 ng/ml FVIIa, 1 U/µl heparin [7]: 65.7 µg/mL
Substance: Anti-thrombin III (AT III) (from UniProt P01008 33-464)

EC50 of Factor X activation (BIOPHEN FVII chromogenic assay) (Factor X (FX)): 0.00038 µg/mL
Substance: Recombinant human FVIIa (NovoSeven) (from UniProt P08709 61-212; P08709 213-466) (enzyme)

O.D, FX activation (chromogenic), rFVIIa 0.0320 ng/ml (Factor X): 0.138 O.D
O.D, FX activation (chromogenic), rFVIIa 0.160 ng/ml (Factor X): 0.178 O.D
O.D, FX activation (chromogenic), rFVIIa 0.80 ng/ml (Factor X): 0.303 O.D
O.D, FX activation (chromogenic), rFVIIa 4.00 ng/ml (Factor X): 0.352 O.D
O.D, FX activation (chromogenic), rFVIIa 20.00 ng/ml (Factor X): 0.365 O.D
O.D, FX activation (chromogenic), rFVIIa 100.00 ng/ml (Factor X): 0.363 O.D
Substance: NovoSeven (commercial recombinant human FVIIa) (from UniProt P08709 61-212; P08709 213-466) (enzyme)
